Assay [1] concerns the target γ-globulin formulation (KAKETSUKEN) that was a human antibody (human). As to the kind of experiment: ELISA: human γ-globulin coated 1 µg/well, culture supernatant diluted 5x, HRP anti-His-Tag detection.
Assay [2] shares this target. The assay is described as above. This is another data set of the same source.
Assay [3] has the same target. Kind of assay: column of FcRm48-immobilised gel loaded with IgG in PBS pH 7.0; eluted with 100 mM citric acid buffer of the given pH; R=A/(A+B)x100, A280.
Assay [4] has the same target. As to the kind of experiment: batch adsorption: 0.5 mL of 10 mg/mL IgG on 0.05 mL FcRm48-immobilised gel, PBS pH 7.0, eluted at pH 3.0, A280.
The target is the same in assay [5]. As to the kind of experiment: batch adsorption: 0.5 mL of 10 mg/mL IgG on 0.05 mL FcRm48-immobilised gel (13.6 mg FcRm48 per mL gel), PBS pH 7.0, eluted at pH 3.0, A280.
The target is the same in assay [6]. Kind of assay: column of FcRm56b-immobilised gel loaded with IgG in PBS pH 7.0; eluted with 100 mM citric acid buffer of the given pH; R=A/(A+B)x100, A280.
For assay [7] the target is unchanged. Kind of assay: batch adsorption: 3.0 mL of 10 mg/mL IgG on 0.5 mL FcRm56b-immobilised gel, PBS pH 7.0, eluted at pH 3.0, A280.
For assay [8] the target is unchanged. Kind of assay: batch adsorption: 3.0 mL of 10 mg/mL IgG on 0.5 mL FcRm56b-immobilised gel (18.7 mg FcRm56b per mL gel), PBS pH 7.0, eluted at pH 3.0, A280.
For assay [9] the target is unchanged. As to the kind of experiment: batch adsorption: 3.0 mL of 10 mg/mL IgG on 0.4 mL FcRm57b-immobilised gel, PBS pH 7.0, eluted at pH 3.0, A280.
Assay [10] has the same target. As to the kind of experiment: batch adsorption: 3.0 mL of 10 mg/mL IgG on 0.4 mL FcRm57b-immobilised gel (14.2 mg FcRm57b per mL gel), PBS pH 7.0, eluted at pH 3.0, A280.
Assay [11] has the same target. Kind of assay: column of FcRm57b-immobilised gel loaded with IgG in PBS pH 7.0; eluted with 100 mM citric acid buffer of the given pH; R=A/(A+B)x100, A280.
Assay [12] has the same target. As to the kind of experiment: column of FcRm32-immobilised gel loaded with IgG in PBS pH 7.0; eluted with 100 mM citric acid buffer of the given pH; R=A/(A+B)x100, A280.
The target is the same in assay [13]. Kind of assay: batch adsorption: 0.5 mL of 10 mg/mL IgG on 0.1 mL FcRm32-immobilised gel (19.3 mg FcRm32 per mL gel), PBS pH 7.0, eluted at pH 3.0, A280.
For assay [14] the target is unchanged. As to the kind of experiment: batch adsorption: 0.5 mL of 10 mg/mL IgG on 0.1 mL FcRm32-immobilised gel, PBS pH 7.0, eluted at pH 3.0, A280.
For assay [15] the target is unchanged. As to the kind of experiment: column of FcRm36b-immobilised gel loaded with IgG in PBS pH 7.0; eluted with 100 mM citric acid buffer of the given pH; R=A/(A+B)x100, A280.
The target is the same in assay [16]. Kind of assay: batch adsorption: 0.5 mL of 10 mg/mL IgG on 0.05 mL FcRm36b-immobilised gel (21.0 mg FcRm36b per mL gel), PBS pH 7.0, eluted at pH 3.0, A280.
Assay [17] shares this target. As to the kind of experiment: batch adsorption: 0.5 mL of 10 mg/mL IgG on 0.05 mL FcRm36b-immobilised gel, PBS pH 7.0, eluted at pH 3.0, A280.
Assay [18] has the same target. As to the kind of experiment: batch adsorption: 0.5 mL of 10 mg/mL IgG on 0.1 mL FcRm19-immobilised gel (23.0 mg FcRm19 per mL gel), PBS pH 7.0, eluted at pH 3.0, A280.
The target is the same in assay [19]. Kind of assay: batch adsorption: 0.5 mL of 10 mg/mL IgG on 0.1 mL FcRm19-immobilised gel, PBS pH 7.0, eluted at pH 3.0, A280.
For assay [20] the target is unchanged. Kind of assay: column of FcRm19-immobilised gel loaded with IgG in PBS pH 7.0; eluted with 100 mM citric acid buffer of the given pH; R=A/(A+B)x100, A280.

Where two headings read alike, the source gives them in different places.

B1: wild-type Fc binding protein (Fc binding protein with no amino acid substitution) expressed by the pETFcR transformant (receptor)
chain: KIEEAMGQVDTTKAVITLQPPWVSVFQEETVTLHCEVLHLPGSSSTQWFLNGTATQTSTPSYRITSASVNDSGEYRCQRGLSGRSDPIQLEIHRGWLLLQVSSRVFTEGEPLALRCHAWKDKLVYNVLYYRNGKAFKFFHWNSNLTILKTNISHNGTYHCSGMGKHRYTSAGISVTVKELFPAPVLNASVTSPLLEGNLVTLSCETKLLLQRPGLQLYFSFYMGSKTLRGRNTSSEYQILTARREDSGLYWCEAATEDGNVLKRSPELELQVLGLQLPTPVHHHHHH
Turning to B1, the OD450 nm in [1] is 0.22 OD450 nm; in [2] it was 0.14 OD450 nm.

B2: Fc binding protein FcRm48 (48 amino acids of a wild-type Fc binding protein substituted) (receptor)
chain: KIEEAMGQVDTPKAVIKLQPPWVSVFLGESVTMHCEAPHLSGTGSTQWFLNDTAIQASTPTYHITSASEDDSGEYRCQRGLSGRSDPILLEVHRGWLLLQVSSRVLTEGEPLALRCHAWRDKQVHNVLFYHNGKAFKFFHRNSTLTIPRTNTSHSGTYHCSGMGRHRYTSAGTLVSVKELFPAPVLTASVTSPLHEGTQVTLSCVTKLLIQRPGLQLYFSFYKGSKTLRGRDTSSEYQILAARREDSGLYWCVAATEDGNVLKRSPELELQVLGHQQPTPVHHHHHH
With B2, in [3], the percentage of antibody elution at pH 3.0 stood at 99.2%, the percentage of antibody elution at pH 3.4 is 100%, the percentage of antibody elution at pH 3.8 is 98.2% and the percentage of antibody elution at pH 4.2 came to 81.9%. Besides, in assay [4], the amount of eluted IgG amounted to 0.94 mg. In addition, the amount of adsorbed IgG per mL of the gel (mg per mL of gel) in [5] turned out to be 18.8.

B3: Fc binding protein FcRm56b (56 amino acids of a wild-type Fc binding protein substituted) (receptor)
chain: KIEEAMGQVDTPKAVIKLQPPWVSVFLGESVTMLCEVPHLSGAGSTQWFRNDTAIQASTPTYHIASASEDDSGEYRCQRGLSGRSDPILLEVHRGWLLLQVSARVLIEGEPLVLRCHAWRDKQVHNVLFYHNGKAFKFFHRNTTLTIPRTNTSHSGTYHCSGMGRHRYTSAGTLVSVKELFPAPVLTASVASPLHEGTQVTLSCVTKLLIQRPGLQLYFSFYKGSETLRGRDTSSEYQILAARREDSGLYWCEAATEDGNVVKRSPELELQVLGHQQPTPVHHHHHH
In [6], B3 registered a percentage of antibody elution at pH 3.0 of 99.7%, a percentage of antibody elution at pH 3.4 of 99.5%, a percentage of antibody elution at pH 3.8 of 94.5% and a percentage of antibody elution at pH 4.2 of 73%. In [7], this molecule displayed an amount of eluted IgG of 11.5 mg. Besides, the amount of adsorbed IgG per mL of the gel (mg per mL of gel) in assay [8] was determined as 23.

B4: Fc binding protein FcRm57b (57 amino acids of a wild-type Fc binding protein substituted) (receptor)
chain: KIEEAMGQVDTPKAVIKLQPPWVSVFLGESVTMLCEVPHLSGAGSTQWFRNDTAIQASTPTFHIASASEDDSGEYRCQRGLSGRSDPILLEVHRGWLLLQVSARVLIEGEPLVLRCHAWRDKLVHNVLFYHNGKAFKFFHRNTTLTIPRTNTSHSGTYHCSGMGRHRYTSAGTLVSVKELFPAPVLTASVASPLLEGTPVTLSCVTKLLIQRPGLQLYFSFFKGGETLRGRDTSSEYQILAARREDSGLYWCEAATEDGNVVKRSPELELQVLGHQQPTPVHHHHHH
B4 showed an amount of eluted IgG in [9] of 6.67 mg. The amount of adsorbed IgG per mL of the gel (mg per mL of gel) in assay [10] turned out to be 16.7. In [11], this molecule displayed a percentage of antibody elution at pH 3.0 of 99.3%, a percentage of antibody elution at pH 3.4 of 99.6%, a percentage of antibody elution at pH 3.8 of 90.2% and a percentage of antibody elution at pH 4.2 of 66.2%.

B5: Fc binding protein FcRm32 (32 amino acids of a wild-type Fc binding protein substituted) (receptor)
chain: KIEEAMGQVDTPKAVIKLQPPWVSVFQGESVTLHCEAPHLSGSSSTQWFLNDTAIQASTPTYHITSASEDDSGEYRCQRGLSGRSDPIQLEVHRGWLLLQVSSRVLTEGEPLALRCHAWKDKLVHNVLYYHNGKAFKFFHRNSNLTIPKTNTSHSGTYHCSGMGRHRYTSAGTSVTVKELFPAPVLTASVTSPLHEGTQVTLSCETKLLLQRPGLQLYFSFYKGSKTLRGRDTSSEYQILTARREDSGLYWCEAATEDGNVLKRSPELELQVLGHQQPTPVHHHHHH
In [12], B5 registered a percentage of antibody elution at pH 3.0 of 98.7%, a percentage of antibody elution at pH 3.4 of 99.3%, a percentage of antibody elution at pH 3.8 of 97.9% and a percentage of antibody elution at pH 4.2 of 82.8%. In assay [13], this molecule returned an amount of adsorbed IgG per mL of the gel (mg per mL of gel) of 19.8. The same molecule gave an amount of eluted IgG in [14] of 1.98 mg.

B6: Fc binding protein FcRm36b (36 amino acids of a wild-type Fc binding protein substituted) (receptor)
chain: KIEEAMGQVDTPKAVIKLQPPWVSVFLGESVTMHCEAPHLSGSGSTQWFLNDTAIQASTPTYHITSASEDDSGEYRCQRGLSGRSDPIQLEVHRGWLLLQVSSRVLTEGEPLALRCHAWKDKLVHNVLYYHNGKAFKFFHRNSTLTIPKTNTSHSGTYHCSGMGRHRYTSAGTSVTVKELFPAPVLTASVTSPLHEGTQVTLSCETKLLLQRPGLQLYFSFYKGSKTLRGRDTSSEYQILTARREDSGLYWCEAATEDGNVLKRSPELELQVLGHQQPTPVHHHHHH
Turning to B6, in [15], the percentage of antibody elution at pH 3.0 turned out to be 99.5%, the percentage of antibody elution at pH 3.4 was 99.4%, the percentage of antibody elution at pH 3.8 amounted to 92.2% and the percentage of antibody elution at pH 4.2 came to 64%. In addition, the amount of adsorbed IgG per mL of the gel (mg per mL of gel) in assay [16] turned out to be 28.8. This molecule yielded an amount of eluted IgG in [17] of 1.44 mg.

B7: Fc binding protein FcRm19 (19 amino acids of a wild-type Fc binding protein substituted) (receptor)
chain: KIEEAMGQVDTPKAVIKLQPPWVSVFQEESVTLHCEVPHLPGSSSTQWFLNGTAIQTSTPTYHITSASEDDSGEYRCQRGLSGRSDPIQLEVHRGWLLLQVSSRVLTEGEPLALRCHAWKDKLVYNVLYYRNGKAFKFFHWNSNLTILKTNMSHSGTYHCSGMGKHRYTSAGISVTVKELFPAPVLTASVTSPLLEGTPVTLSCETKLLLQRPGLQLYFSFYMGSKTLRGRDTSSEYQILTARREDSGLYWCEAATEDGNVLKRSPELELQVLGHQQPTPVHHHHHH
In assay [18], B7 had an amount of adsorbed IgG per mL of the gel (mg per mL of gel) of 21. The same molecule returned an amount of the eluted IgG in assay [19] of 2.1 mg. In assay [20], this molecule returned a percentage of antibody elution at pH 3.0 of 99.1%, a percentage of antibody elution at pH 3.4 of 87.4%, a percentage of antibody elution at pH 3.8 of 51.3% and a percentage of antibody elution at pH 4.2 of 22%.
